Experimental data: the supplement of paper PMC9170038

System: K4 kissing-loop RNA reporter
Test: apparent KD of K4 kissing-loop reporter; higher = weaker reporter binding
Conditions: Eterna round: R107
Protocol: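 RNA-MaP round R107: designed RNA switches with theophylline, tryptophan, arginine or FMN aptamers are transcribed on-chip within common flanks. They are titrated with a labelled K4 kissing-loop RNA reporter in RNA-MaP buffer (100 mM Tris pH 7.5, 80 mM KCl, 4 mM MgCl2), without ligand or with the indicated ligand. Median apparent KD per design.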

[1] = input ligand: theophylline 20 uM
[2] = input ligand: tryptophan 2.4 mM
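Note: bound reporter read as fluorescence of individual clusters on recovered sequencing chips by microscopy, with normalized cluster intensities fitted with a binding model.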

Sequence | apparent KD of K4 kissing-loop reporter (input ligand: FMN 200 uM) [nM] | apparent KD of K4 kissing-loop reporter (input ligand: arginine 13.2 mM) [nM] | apparent KD of K4 kissing-loop reporter (input ligand: none) [nM] | apparent KD of K4 kissing-loop reporter [1] [nM] | apparent KD of K4 kissing-loop reporter [2] [nM]
UGGAUAUAGUGAUGUUAUAUAGAGAUGGAUACCAGCUAAGAGAAUAGCCCUUGGCAGCCGAAAGAAGUAUCAUUAGAGAAGAAUG [ExTheophyl.Ae] | 294 | 231 | 280 | 253 | 212
GUUAAUAGUAGUGAUGUUACAAUAGUUUGUGAGGAUAUCCCGAAAGGGAGAAGGCACAAACAAAUAGAUUCUCACAAAUAUUUAC [FMN A exclusion] | 191 | 185 | 243 | 238 | 146
AGCAAUAUCACGGCCGCCACUGAAUAUUGUUUUUAUAUUUAUAAAUCUUGCCAGUGAUGUUGGUUCAGGACCGGGUGAGUUAAUA [JR_SSTryptoB_Sub004] | 573 | 603 | 783 | 665 | 412
UUGAGACGUCAAGGAUAUUCCGCGGAAGGGCGAGCGACCCAAGUGUGAGUGAUGUUCAGCAAGCCGGAAGAAGGUGAAUUUCACC [theeternabot_sameState_KL_FMN_B_26] | 799 | 628 | 958 | 1050 | 937
AACGUUUUGUGAAGGAGCGCGAUAAGCAGUGAUGUUGCUUACUUACAAUUUAUAUUUUACACGCAGGUAGGUCGCACAAUACGUA [JR_SSArginiB_Sub017] | 207 | 160 | 190 | 163 | 173
AAGUCAUAUAGAAGGAGCGUGUUUUUUAAUUUAUUUUCAUGAUCGAGUGAUGUUCGAUAUACACAGGUAGGUCGCUGUAUAAUAA [hbob_SS_Arginine_B_2t141] | 126 | 145 | 127 | 179 | 112
AGUGUUGUAUGGCGGUUUGUCACUUAGGAUCAGGAUAUAUAAACAAAUAGAAGGGAUGGCGGAGUGAUGUUCCGCCGGCCGCCAU [FMN A Exl V7] | 132 | 128 | 121 | 126 | 121
AUUUAGACGAGUGAUGUUCGUGUUUUUUCAGAGGAUAUGCGUAAUUGCAGAAGGCUGUAUUUAUAUAUGUUUUGUUUUUUUAAAA [JR_ExcFMNA_Sub008] | 80.4 | 92.1 | 75.4 | 93.6 | 69.3
GCAGGCGUAAAAGGAUAUCAGGCUCUCUAGACACGAGUGAUGUUUGUGUAGGUAACGUAAUAGGCAUGAGAAGGUUUCACUUAAA [theeternabot_sameState_KL_FMN_B_49] | 608 | 430 | 547 | 524 | 416
GGUAGCAUGGCGGCCGCCACUAUCCUUCAUGGUUGACAUUAAGGAUAGCAUAGUGAUGUUAUGAAUAGGACCGGGCCAUGCUACC | 175 | 136 | 163 | 137 | 149
AAGCAGUCAGGAUCGAAGAUCCUGCAAAACCGAGGACCGGUACGGCCGCCACUCGGAGUGAUGUUCCGAAGACUGCAAAAUAAAA [#SwitchBubble 6] | 191 | 152 | 213 | 150 | 64.5
AAGUCAUACAGAAGGAGCGUGUUUUAUAAUUUAUUUUCAUGAUCGAGUGAUGUUCGAUAUACACAGGUAGGUCGCUGUAUAAUAA [JR_SSArginiB_Sub007] | 102 | 146 | 121 | 146 | 103
AACACUCAGAGAGUGAUGUUCUCUAAUAAACGAGGACCGGUACGGCCGCCACUCGAAUAAGAGUGAGUCCUACGAAAAGUAGGAC [Omei inspired 5 #OpenEnded] | 790 | 726 | 1050 | 1120 | 224
GGUUUAUAGGAGGAUACCAGUACGGAUAAAGUACGUUAAUAGUAGAGUGAUGUUCUAAAGUACCCUUGGCAGCUUAGAGUGAGUG [ExTheophylB.M] | 98.6 | 164 | 136 | 182 | 94.3
CCGUGGAGUGAUGUUCCACGUACUACGGAUACCAGCUUUGCCAAAGGCCCUUGGCAGCCGCACGUUGCAGUGAUGUUGUGGCGCG [Same State Theophylline A G9] | 345 | 241 | 327 | 328 | 299
AACGCUGGUGAAUAACACUAGCGAAAUUCGCGAGGACCGGUACGGCCGCCACUCGCUAACUGCGAGUGAUGUUCGAUAAUAAAAU [Mat - Mod of OpenEnded 3 - D7] | 174 | 125 | 197 | 280 | 122
AUAGCUGAUAGCAGUGAUGUUGCUUCAGAUACCAGACGAGAUCAUGUCCCUUGGCAGCUGACAUGGCAAGUGCUAGGUUAGAUGA [#11 K4 Theophylline A Exclusion] | 140 | 114 | 125 | 120 | 130
UUUUAAAUGUCUGAUACCAGAGAAAAUAUAUGUAGUGAUGUUAUAUACAAAAUAAAUAAGCUCCCUUGGCAGCAGUAUUAAUUUU [AstrosExc-TheB#6] | 679 | 632 | 863 | 725 | 529
UCGUUAAAAGCGGCCGCCACUGCCAGAGCUCUGGAAAAGGCUGGAGUGAUGUUCUGCCUAGUAGACAGGACCGGGCUAUUGGAUU [theeternabot_sameState_KL_Trp_B_29] | 667 | 422 | 609 | 588 | 594
GCCUUUUUUCGAGCUACAGCUCGAUUUGGUCGAGGACCGGUACGGCCGCCACUCGAAUGAUAGUGAUGUUAUCAUUAUGGCAUAA [JR_ExcTryptoA_Sub023] | 196 | 166 | 176 | 186 | 152
CCGGCCCAGCCGGAUACCAGUGCGCCGCAGGGAACGGCGGGCCCAGAGUGAUGUUCGGGACACCCUUGGCAGCCGCCUGGGUCCC [#2 Same State - Theophylline B Attempt #30 (HarryS)] | 618 | 364 | 669 | 355 | 435
CUUGAUCGAGGAAGGAGCGGGCCGUCAUUGAGCGCAGUGAUGUUGCGUUCGACUAGUCGAGCCCAGGUAGGUCGCCUGGAGUAAG [Lazalaa] | 84.9 | 76.1 | 98.2 | 78.2 | 90.8

Sequence | apparent KD of K4 kissing-loop reporter (input ligand: FMN 200 uM) [nM] | apparent KD of K4 kissing-loop reporter (input ligand: arginine 13.2 mM) [nM] | apparent KD of K4 kissing-loop reporter (input ligand: none) [nM] | apparent KD of K4 kissing-loop reporter [1] [nM] | apparent KD of K4 kissing-loop reporter [2] [nM]
GUAGCACUUGAUAGUGAUGUUAUCAAGGGCAAGGAUAUCAUCUCAAUGAGAAGGUGUCCUUGAUAACUGCUACGGGAAUAUCCCA [Omei KL FMN A Exc D v6] | 444 | 89 | 96.8 | 86 | 102
GAGGCCAGACUGAGUGAUGUUUAGUAUGAUACCAGUAUCGAAGGAUACCCUUGGCAGCAUGCCACGGCCUCGGCGGGAAACCGCC | 746 | 663 | 1000 | 714 | 876
UGAUAGGACAGAAGGAGCGGGAGUGAUGUUCCCAAAAGGGUAAGGUGUCAAAAGACACCCUUCCAGGUAGGUCGCUGUCCUAUCU | 97.7 | 105 | 97.5 | 102 | 83.9
AAAGAUGCGUCGGCCGCCACUGUGAUCUACGAAAGUAGUAUGUAGAUGCAGUGAUGUUGCAUUUUCAGGACCGGGACGUAAGAUG [3rd] | 447 | 362 | 321 | 496 | 211
AGAACUGUCUGAGAUACCAGCCAGGAAGUGAUGUUUCCAGCUCCACGAAAGUGGAGCCAUGGCCCUUGGCAGCUCAGACAGUUCA [Omei KL Theo B SS A v5] | 150 | 141 | 147 | 105 | 154
AAAAGCAGAAAGACGCAUUAAAGAACCGAAGGAGCGCGGAAUUACGCAGGUAGGUCGCGGGAUAAGCGAGUGAUGUUCGCGAAAG [Arginine A Same State; Euphoria Solution] | 60.7 | 105 | 72.1 | 89.5 | 53.6
UUAGGAGAGGGAAGGAGCGUGAAAGAGAAAGAAUAUAGUGAUGUUAUAUAGAAGAAAGAAUCACAGGUAGGUCGCCCGGAGGAGG [SSArgB.C] | 672 | 520 | 632 | 225 | 518
UGACAUUGCUCAGAUACCAGACAUGAGCAUCAGCCAUGUACCAAGAAAGUACAAUAAAAUGUCCCUUGGCAGCUGAGCAAUGUCU [TheoBX 8] | 56.1 | 25.6 | 47.8 | 121 | 48.4
UGUUACCAGUGAUGUUGGGAGAUGAAGAGCAAGGAUAUGUGAUAGUACAGAAGGUGCGUCGUCGUGAUUAUCACGCUCUGUGUUA [theeternabot_exclusion_KL_FMN_A_8] | 266 | 98.3 | 141 | 138 | 111
CCUUCUCUUGAUAGUGAUGUUAUCGAGGACAAGGAUAUCAUCUCAAUGAGAAGGUGUCCUUGAUAACAUGGAGGUCUGAAACAGA [Omei KL FMN A Exc C v9] | 205 | 355 | 439 | 427 | 454
UAUGCUUGUGCUGAUACCAGUGUUAGUGAUGUUAGGACUGUCAGUAGGAUGCGUGCAUUUCACCCUUGGCAGCAGUAUCGCAGCA [theeternabot_exclusion_KL_Theo_B_48] | 447 | 295 | 351 | 426 | 387
AACUGGGUUCGUGAUACCAGCUCACACAUGAGUGAUGUUGAUGUAGUGGGCAAAAUGUGGAGCCCUUGGCAGCACUGUGACCACG [XTheo-B3] | 422 | 358 | 411 | 378 | 371
GUGCGCGGUGCGGCCGCCACUCGGAUGCGAGUGAUGUUCGCGGGACGGACGCAAGUCCGUCAUUCGAGGACCGGGCAUGGCUGUA [#2 Same State - Tryptophan B Attempt #5 (HarryS)] | 336 | 274 | 247 | 252 | 169
CUUGAUGUAGCGGCCGCCACUCUAGAUCCGCAUCGGAUGAGGUACUUGAAGUGAUGUUUUGAGGUGAGGACCGGGCUCUAAAGAA [theeternabot_sameState_KL_Trp_B_16] | 750 | 455 | 564 | 452 | 420
CCGGCCCGGCCGGAUACCAGUGCGCCGCUGGGAACCGCGGGCCCAGAGUGAUGUUCGGGACACCCUUGGCAGCCGCCUGGGUCGC [#2 Same State - Theophylline B Attempt #24 (HarryS)] | 398 | 140 | 247 | 217 | 240
AAGUGAUGUUGUAGUGAUGUUGUGAUGUUGCAGGAUAUAUAGUGAUGUAGAAGGGUAUGUACUUAUUUGUUUUUUGAGUUAUGUU [zzazzrmullin] | 65.9 | 28.5 | 53.1 | 41 | 53.8
AAAUUUUCAAGUGAUACCAGACAUUUUUAUUUCUUUAUUUAUGCUAAGUGAUGUUUAGCAGUCCCUUGGCAGCACUAUUUAAUUA [JR_Nu_SSTheophyB_Sub030] | 127 | 174 | 141 | 231 | 144
GCGCGUCAUGUCAGCGGUGACACUGUCGAUACCAGCGCCGGAAGGCGCCCUUGGCAGCGACGUGCUGGAGUGAUGUUCCAGCGUC [#2 Exclusion - Theophylline A Attempt #21 (HarryS)] | 177 | 107 | 140 | 130 | 134
UGACUGGACUGAAGGAGCGCUGAAGGAGCGUAAGCAGUGAUGUUGCUUACAGGUAGGUCGCAGCAGGUAGGUCGCAGUCUAGUCU | 93.5 | 78.7 | 93.4 | 90 | 99.6
GCCGUACGCAUGGAUACCAGCCGACAUGAUAUUUAGCUGGUGUCGUAGUGAUGUUACGAAGGCCCUUGGCAGCCAUGCGUACGGC | 83.7 | 72.7 | 78.2 | 79.1 | 78.7
AAAGUGUCAGCACGAGUGAUGUUCGACGAUACCAGCCUCGAUAGAGGCCCUUGGCAGCGUAAAAGUCAAGGGCUGGCACAUAAAA [#SwitchBubble 5 #K4Early] | 789 | 751 | 1300 | 494 | 1440
